Measured values from PMC5702669.

Tests used:
[1] = target: skeletal muscle actin (UniProt P68135)
[2] = target: full-length PfMyoA heavy chain with C-terminal biotin tag and FLAG tag (P. falciparum) (UniProt Q8IDR3)

Substance: PfMD, PfMyoA motor domain (Met-1–Lys-768) with C-terminal FLAG tag (from UniProt Q8IDR3 1-768) (domain or fragment)
- Km (actin concentration at half-maximal activity) of the actin-activated ATPase, 30 °C, 5 mM NaCl [1]: 13 µM

Substance: PfMD T417D (phosphomimic at the TEDS site) (from UniProt Q8IDR3 1-768) (domain or fragment)
- Km (actin concentration at half-maximal activity) of the actin-activated ATPase, 30 °C, 5 mM NaCl [1]: 4.4 µM

Substance: PF3D7_0107000, putative centrin-1 (PfPC1), N-terminal His6 tag (natural protein)
- in vitro motility speed of PfMyoA-MTIP with PF3D7 0107000 added, no calcium [2]: 1.5 μm/s

Substance: PfMD T417A (phospho-null at the TEDS site) (from UniProt Q8IDR3 1-768) (domain or fragment)
- Km (actin concentration at half-maximal activity) of the actin-activated ATPase, 30 °C, 5 mM NaCl [1]: 9.8 µM

Substance: P. falciparum essential light chain (PfELC), untagged (from UniProt Q8IJM4 1-134) (natural protein)
- in vitro motility speed of PfMyoA-MTIP with PfELC, no calcium [2]: 3.8 μm/s
- in vitro motility speed of PfMyoA-MTIP with PfELC, with calcium (100 μM) [2]: 3.8 μm/s

Substance: T. gondii essential light chain TgELC1 (from UniProt A0A125YUL9 1-87) (natural protein)
- in vitro motility speed of PfMyoA-MTIP with TgELC1, no calcium [2]: 3.3 μm/s

Substance: PF3D7_0627200, putative myosin light chain (PFF1320c) (from UniProt C6KTA8 1-139) (natural protein)
- in vitro motility speed of PfMyoA-MTIP with PF3D7 0627200 added, no calcium [2]: 1.1 μm/s
- in vitro motility speed of PfMyoA-MTIP with PF3D7 0627200 added, with calcium [2]: 0.6 μm/s
